Measured values published in the Immune Epitope Database (IEDB).

What was measured:
[1] = molecular target: HLA-B*58:01; assay: IEDB peptide-MHC binding, purified MHC/direct/fluorescence; filed as Kd, often an IC50 or EC50 that approximates it; ≥ and ≤ were set here for values at or beyond the usual limits of such assays; settings: source organism: Entamoeba histolytica HM-1:IMSS
[2] = molecular target: HLA-B*57:01; assay: as above; settings: source organism: Entamoeba histolytica HM-1:IMSS
[3] = molecular target: HLA-B*44:03; assay: IEDB peptide-MHC binding, purified MHC/competitive/radioactivity; filed as Kd, often an IC50 or EC50 that approximates it; ≥ and ≤ were set here for values at or beyond the usual limits of such assays
[4] = molecular target: HLA-B*40:02; assay: as above
[5] = molecular target: HLA-B*45:01; assay: as above
[6] = molecular target: HLA-B*18:01; assay: as above
[7] = molecular target: HLA-B*44:02; assay: as above
[8] = molecular target: HLA-B*40:01; assay: as above
[9] = molecular target: HLA-B*35:01; assay: as above; settings: source organism: Dengue virus 3 Martinique/1243/1999
[10] = molecular target: HLA-B*51:01; assay: as above; settings: source organism: Dengue virus 2 Jamaica/1409/1983
[11] = source organism: SARS coronavirus Tor2
[12] = source organism: Mammarenavirus brazilense
[13] = source organism: Mammarenavirus guanaritoense
[14] = source organism: Mammarenavirus machupoense

Sequence | Kd [3, 11] [µM] | Kd [4, 11] [µM] | Kd [5, 11] [µM] | Kd [6, 11] [µM] | Kd [7, 11] [µM] | Kd [8, 11] [µM] | other results
SSTDQQEWM | – | – | – | – | – | – | Kd [1]: 3.87 µM; Kd [2]: ≥ 20 µM
SAFFGMSRIG | 8.77 | ≥ 70.8 | ≥ 26.4 | ≥ 70.5 | 18.4 | ≥ 44.9 | –
TPPGTADAF | – | – | – | – | – | – | Kd [9]: 0.278 µM
IDPLIVSTS | – | – | – | – | – | – | Kd [3, 12]: 18.3 µM; Kd [4, 12]: 4.61 µM; Kd [5, 12]: 18.9 µM; Kd [6, 12]: ≥ 77.5 µM; Kd [7, 12]: ≥ 77.9 µM; Kd [8, 12]: ≥ 48.4 µM
FEEALNVALA | – | – | – | – | – | – | Kd [3, 13]: ≥ 70.1 µM; Kd [4, 13]: 0.279 µM; Kd [5, 13]: 0.0893 µM; Kd [6, 13]: 0.0991 µM; Kd [7, 13]: ≥ 70.2 µM; Kd [8, 13]: 5.56 µM
DPFPQSNAPI | – | – | – | – | – | – | Kd [10]: 0.69 µM
VDYGVRFFFY | 0.789 | ≥ 30.4 | 0.451 | ≥ 38.1 | 0.823 | 16.8 | –
GECPKFVFPL | 0.671 | 0.00128 | 3.6 | ≥ 70.5 | 0.952 | 0.00273 | –
DEWSVATFY | 0.0104 | ≥ 77.3 | ≥ 77.8 | 0.00282 | 0.316 | ≥ 76.2 | –
KEINFLSQT | – | – | – | – | – | – | Kd [3, 14]: 17.3 µM; Kd [4, 14]: 0.0151 µM; Kd [5, 14]: 0.643 µM; Kd [6, 14]: ≥ 28.3 µM; Kd [7, 14]: 16.1 µM; Kd [8, 14]: ≥ 63.7 µM
